Measured values as given in PMC11741606 (2025).
Positions count from the first letter of the chain named.

What was measured:
Test in all cases: SPR
[1] = target: T1, dAPN-Y797H ectodomain, hFc-tagged (dog (Canis lupus familiaris), UniProt P79143 33-975, Y797H)
T1 sequence: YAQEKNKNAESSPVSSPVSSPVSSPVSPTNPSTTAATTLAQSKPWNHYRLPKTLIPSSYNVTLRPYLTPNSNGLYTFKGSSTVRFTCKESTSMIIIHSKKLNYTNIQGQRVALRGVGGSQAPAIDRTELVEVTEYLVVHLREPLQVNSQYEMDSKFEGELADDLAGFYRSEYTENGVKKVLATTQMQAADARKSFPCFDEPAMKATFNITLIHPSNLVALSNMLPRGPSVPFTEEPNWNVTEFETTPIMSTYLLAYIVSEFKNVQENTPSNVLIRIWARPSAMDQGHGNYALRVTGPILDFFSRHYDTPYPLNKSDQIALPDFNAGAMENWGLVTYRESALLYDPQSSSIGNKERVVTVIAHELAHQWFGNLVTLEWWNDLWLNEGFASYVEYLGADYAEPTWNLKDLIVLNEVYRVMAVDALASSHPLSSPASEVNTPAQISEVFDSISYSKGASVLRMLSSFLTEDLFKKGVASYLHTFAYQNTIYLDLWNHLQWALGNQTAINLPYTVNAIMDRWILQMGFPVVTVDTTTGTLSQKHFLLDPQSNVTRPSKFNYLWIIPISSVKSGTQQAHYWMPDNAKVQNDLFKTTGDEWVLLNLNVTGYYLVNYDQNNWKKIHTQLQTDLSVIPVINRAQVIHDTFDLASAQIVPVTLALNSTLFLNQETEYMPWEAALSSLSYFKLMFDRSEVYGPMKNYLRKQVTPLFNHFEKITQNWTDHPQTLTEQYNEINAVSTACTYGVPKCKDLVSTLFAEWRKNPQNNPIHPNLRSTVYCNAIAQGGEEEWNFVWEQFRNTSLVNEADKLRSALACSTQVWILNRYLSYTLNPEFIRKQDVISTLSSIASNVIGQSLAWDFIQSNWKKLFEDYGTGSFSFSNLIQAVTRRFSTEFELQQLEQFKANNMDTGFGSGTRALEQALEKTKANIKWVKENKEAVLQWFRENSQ

[2] = target: T2, dAPN-D750E ectodomain, hFc-tagged (dog (Canis lupus familiaris), UniProt P79143 33-975, D750E)
T2 sequence: T1 sequence with D718E, H765Y

[3] = target: T3, dAPN-Q746K ectodomain, hFc-tagged (dog (Canis lupus familiaris), UniProt P79143 33-975, Q746K)
T3 sequence: T1 sequence with Q714K, H765Y

B1: TGEV RBD (receptor-binding domain of the transmissible gastroenteritis coronavirus spike protein) (domain or fragment)
chain: TANLNNGFYPVSSSEVGLVNKSVVLLPSFYTHTIVNITIDLGMKRSGYGQPIASTLSNITLPMQDNNTDVYCIRSDQFSVYVHSTCKSSLWDNIFKRNCTDVLDATAVIKTGTCPFSFDKLNNYLTFNKFCLSLSPVGANCKFDVAARTRTNEQVVRSLYVIYEEGDNIVGVPSD
Q: Which results are given for B1?
A: Kd [1]: 23.8 nM; Kd [2]: 30.8 nM; Kd [3]: 333 nM
